Measurements from patent US7183092B2, “Modified luciferase” (priority 2003, dated 2007).
“Also recorded” adds a separate entry of the source.

Columns and labels:
[1] = Quantitative in vitro screening of mutant luciferases with chloroform; format: biochemical, Photinus pyralis; settings: screening; 68.8 mM chloroform (0.8% vol.), 10% ethanol, 33 mM DTT, cell lysate supernatant
Experimental: Selected colonies from secondary screening were inoculated and grown in 5 ml LB broth containing 100 μg/ml ampicillin at 30° C. overnight. When the OD660 reached approximately 1, bacterial cells were harvested from 1.5 ml of culture by centrifugation for 3 min at 12,000 rpm (Eppendorf centrifuge model 5415D). Harvested cells were resuspended in 1 ml of 40 mM Tris-Acetate buffer, pH 7.8, and sonicated for 10 seconds using a Branson Sonifer 450, Duty cycle-40 and output control-4. The activity of each luciferase sample, prepared using 10 μl of supernatant from a subsequent centrifugation of sonicated bacterial cell culture, was tested in 200 μl total reaction volume by a Luminometer (Perkin Elmer, model Victor II). Each assay contained 40 mM Tris-Acetate, 1 mM MgSO4, 0.1 mM EDTA (ethylenediaminetetraacetic acid), 33 mM DTT (dithiothreitol), 500 μM D-Luciferin, 10% Ethanol and 500 μM ATP at pH 7.8. Some screening assays also contained 68.8 mM chloroform (0.8% vol.).
Different mutant luciferases were compared quantitatively by determining the percentage (%) inhibition of luciferase activity in the presence of chloroform relative to a control without chloroform. The specific activities of chloroform-tolerant mutants were generally lower as compared to wild type. […] The nucleotide sequence of CNBLuc03-02 is SEQ ID No: 1. The polypeptide sequence of the product of SEQ ID No: 1 is SEQ ID No: 2.

[2] = Luciferase activity in the presence of anionic detergent SDS; format: biochemical, Photinus pyralis; settings: FIG. 5; 20 ng purified luciferase, 0% ethanol, 33 mM DTT
Experimental: (§1) The stability of CNBLuc03-06 luciferase (SEQ ID NO: 4), both in purified form and in cell lysates, in the presence of a range of potential inhibitors was assayed. The basic assay contained 40 mM Tris-Acetate at pH 7.8, 1 mM MgSO4, 0.1 mM EDTA (ethylenediaminetetraacetic acid), 500 μM D-Luciferin and 500 μM ATP. Ethanol, DTT (dithiothreitol) and potential inhibitors were included at the concentrations stated.
(§2) The stability of CNBLuc03-06 luciferase (SEQ ID NO: 4) in the presence of Triton X-100 and SDS was determined using 20 ng of purified luciferase per sample using the basic assay conditions and in the presence of 0% ethanol and 33 mM DTT. The effect of detergents on wild type luciferase was determined previously by W. J. Simpson and J. R. M. Hammond (W. J. Simpson and J. R. M. Hammond, (1991) Journal of Bioluminescence & Chemiluminescence, 6. 97–106, incorporated herein by reference). They reported the anionic detergents inhibit luciferase activity, and cationic detergents and nonionic detergents increase the reaction rate when the concentration of detergent exceeds critical micelle concentration (CMC) value but only up to certain concentrations.
SDS was used for testing the effect of anionic detergents.

[3] = Thermostability (storage stability) of luciferase; format: physicochemical, Photinus pyralis; settings: FIG. 6-8; 10 μg/ml enzyme kept at 0° C., 25° C. and 37° C.
Experimental: Both purified wild type luciferase and CNBLuc03-06 luciferase (SEQ ID NO: 4) were diluted to 10 μg/ml and aliquoted in three micro-centrifuge tubes for these storage stability studies conducted at different temperatures. The tubes containing wild type luciferase and CNBluc03-06 luciferase (SEQ ID NO: 4) were incubated at three different temperatures, 0° C. (FIG. 6), 25° C. (FIG. 7), and 37° C. (FIG. 8) over time. The assay contained 40 mM Tris-Acetate at pH 7.8, 1 mM MgSO4, 0.1 mM EDTA, 500 μM D-Luciferin, 1 mM ATP, 0% ethanol and 33 mM DTT. The light output was measured every 30 minutes after two initial measurements at time 0 and 10 minutes. For each measurement all the samples were diluted to 2 μg/ml so that 10 μl of each sample could be added to give 20 ng of purified enzyme in each reaction.

[4] = Luciferase activity in the presence of nonionic detergent Triton X-100; format: biochemical, Photinus pyralis; settings: FIG. 4; Triton X-100 up to 5%, 20 ng purified luciferase, 0% ethanol, 33 mM DTT
Experimental: as §1, §2

[5] = Specific activity of luciferase in the absence of DTT; format: biochemical, Photinus pyralis; settings: 0 mM DTT, pH 7.8, 1 mM ATP, 500 μM D-Luciferin, three replicates
Experimental: Dithiothreitol (DTT) is an enzyme stabilizing agent used to reduce disulfide bonds (break the bonds) that are not normally formed under physiological conditions. Both purified wild type luciferase and CNBLuc03-06 luciferase (SEQ ID NO: 4) were diluted to 2 μg/ml in 40 mM Tris Acetate buffer at pH 7.8. The assay contained 40 mM Tris-Acetate at pH 7.8, 1 mM MgSO4, 0.1 mM EDTA, 500 μM D-Luciferin, 1 mM ATP, and 0 mM DTT. The light output was measured over time and three replicate measurements were made for each luciferase. The average value of the highest light output reading obtained over time was used to determine specific activity of each enzyme.

[6] = Luciferase activity at different pHs; format: biochemical, Photinus pyralis
Experimental: 20 ng of enzyme was used for each reaction. The pH was maintained at 7.8 by 40 mM Tris-acetate buffer and 33 mM DTT was added to each reaction. Both substrates, MGATP and D-Luciferin were saturated at 1 mM and 500 μM respectively. The values were normalized against the highest RLU (relative light units) at each pH optimum for comparison purpose. CNBLuc03-06 luciferase (SEQ ID NO: 4) has optimum pH of 9, but the high enough activity is retained at lower pHs in which enables us to use this mutant luciferase in case a wide range of pH is required for the assay (between 8–11).

[7] = Stability of CNBLuc03-06 luciferase activity in the presence of HPV chemicals; format: biochemical, Photinus pyralis
Experimental: as §1
This effect was confirmed by repeated experiments. With 20 ng purified CNBLuc03-06 luciferase (SEQ ID NO: 4) and in the presence of 2.5% ethanol, 1 mM DTT and 86 mM chloroform an activation of approximately 50% was measured, compared with the absence of chloroform.
The capacity of a variety HPV chemicals to inhibit or activate both wild type luciferase and CNBLuc03-06 luciferase (SEQ ID NO: 4) activity compared to controls without HPV chemicals was tested. Higher concentrations of chloroform (172 mM), methylene chloride (318 mM) or toluene (2.7 mM) were used. The basic assay contained 20ng of purified CNBLuc03-06, 1 mM DTT and 2.5% ethanol. CNBLuc03-06 luciferase (SEQ ID NO: 4) was exposed to each chemical for less than 5 minutes before measuring the light output.

B1: CNBLuc03-06: modified Photinus pyralis luciferase: serine to threonine at 239, aspartic acid to tyrosine at 357, alanine to threonine at 532 (protein, listed as Photinus pyralis)
chain: MEDAKNIKKGPAPFYPLEDGTAGEQLHKAMKRYALVPGTIAFTDAHIEVNITYAEYFEMSVRLAEAMKRYGLNTNHRIVVCSENSLQFFMPVLGALFIGVAVAPANDIYNERELLNSMNISQPTVVFVSKKGLQKILNVQKKLPIIQKIIIMDSKTDYQGFQSMYTFVTSHLPPGFNEYDFVPESFDRDKTIALIMNSSGSTGLPKGVALPHRTACVRFSHARDPIFGNQIIPDTAILTVVPFHHGFGMFTTLGYLICGFAVVLMYRFEEELFLRSLQDYKIQSALLVPTLFSFFAKSTLIDKYDLSNLHEIASGGAPLSKEVGEAVAKRFHLPGIRQGYGLTETTSAILITPEGDYKPGAVGKVVPFFEAKVVDLDTGKTLGVNQRGELCVRGPMIMSGYVNNPEATNALIDKDGWLHSGDIAYWDEDEHFFIVDRLKSLIKYKGYQVAPAELESILLQHPNIFDAGVAGLPDDDAGELPAAVVVLEHGKTMTEKEIVDYVASQVTTAKKFRGGVVFVDEVPKGLTGKLDTRKIREILIKAKKGGKSKL
- inhibition of luciferase activity in the presence of chloroform relative to a control without chloroform [1]: not only resistant to, but also had the capacity to be activated by chloroform
- effect of SDS on luciferase activity [2]: inhibited luciferase activity significantly; also recorded: retained much more activity at all concentrations of SDS compared to wild type luciferase
- activity retained on incubation over time [3]: retained more activity than wild type luciferase
- effect of Triton X-100 on luciferase activity [4]: activated by the nonionic detergent, Triton X-100, up to final concentration of 1.25%; also recorded: maintained activities above the control at all concentrations of Triton X-100
- specific activity (highest light output) [5]: 9.6±0.4×10^9 RLU/mg enzyme/sec
- optimum pH ([6]; FIG. 9, 20 ng enzyme, 33 mM DTT, 1 mM MgATP, 500 μM D-Luciferin): 9
- activity at elevated pH ([6]; up to pH 11): high activity at elevated pH (up to pH 11)
- activation compared with the absence of chloroform ([7]; 20 ng purified enzyme, 2.5% ethanol, 1 mM DTT, 86 mM chloroform): approximately 50%
- activation compared to controls, chloroform ([7]; FIG. 3, chloroform 172 mM, 20 ng purified enzyme, 1 mM DTT, 2.5% ethanol): approximately 60%
- activation compared to controls, methylene chloride ([7]; FIG. 3, methylene chloride 318 mM, 20 ng purified enzyme, 1 mM DTT, 2.5% ethanol): approximately 80%
- activation compared to controls, toluene ([7]; FIG. 3, toluene 2.7 mM, 20 ng purified enzyme, 1 mM DTT, 2.5% ethanol): about 20%
- activation compared with the absence of chloroform ([7]; cell lysates, 5% ethanol, 33 mM DTT, 0.8% chloroform): about 30%
